This passage reports Kd and dH results from PMC5995566 (Biochemistry, 2017).

The target in the experiment is T1, human S100A5 (human).
T1 sequence (P33763 1-92, looked up): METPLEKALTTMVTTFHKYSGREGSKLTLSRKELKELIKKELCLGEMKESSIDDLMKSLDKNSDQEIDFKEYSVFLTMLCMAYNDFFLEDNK
As to the kind of experiment: ITC. A general note: In ITC the heat of successive injections is recorded.

In general, Kd refers to the equilibrium constant for the complex coming apart.

In turn, RRLLFYKYVYKR [12 amino acid fragment of the protein NCX1] displayed a Kd of 18 ± 4 µM and a dH of -3.6 ± 1 kcal/mol.
